Assay results published in patent publication US6977154, “Nucleic acid binding proteins” (Gendaq Limited).

Key:
Test in all cases: phage ELISA, apparent Kd; PBS, 50 uM ZnCl2, 20 C
Conditions in all cases: protein: virion; tags: phage fd pIII fusion (Fd-Tet-SN), Zif268 framework; label: 5' biotin
[1] = target: zfHAE(M)
Procedure: (§1) Binding sites are synthesised as described above, including biotinylated sites where 5-meC (M) is replaced by a C or T (with appropriate bases in the complementary strand). Two-fold dilutions of DNA are added to separate wells of a streptavidin-coated microtitre plate (Boehringer Mannheim) in 50 µl PBS containing 50 µM ZnCl_2 (PBS/Zn). Phage solution (bacterial culture supernatant diluted 1:10 in PBS/Zn containing 2% (w/v) fat-free dried milk (Marvel), 1% (v/v) Tween and 20 µg/ml sonicated salmon sperm DNA) are applied to each well (50 µl/well). Binding is allowed to proceed for one hour at 20° C. Unbound phage are removed by washing 6 times with PBS/Zn containing 1% (v/v) Tween, then 3 times with PBS/Zn. Bound phage are detected by ELISA using horseradish peroxidase-conjugated anti-M13 IgG (Pharmacia Biotech) and the colourimetric signal quantitated using SOFTMAX 2.32 (Molecular Devices).
(§2) Zinc finger phage binding for each of the above clones is titrated against different amounts of methylated and unmethylated DNA oligos to derive values of the apparent dissociation constants (K_ds) for either DNA binding site (see FIGS. 4 and 5). The apparent Kd of each clone for the optimally bound DNA site(s) is in the nanomolar range, similar to that of wild-type Zif268 DNA-binding domain for its preferred target site using this assay. Clones zfHAE(M) (Table 1 F1: SEQ ID NO.:20; F2: SEQ ID NO.:25; F3: SEQ ID NO.:30) and zfHHA(M) (Table 1 F1: SEQ ID NO.:21; F2: SEQ ID NO.:26; F3: SEQ ID NO.:31) preferentially bind their respective DNA target sites when 5-meC is incorporated into the correct nucleotide positions, and discriminated against the unmethylated DNA sites by factors of approximately 20-fold and 5-fold, respectively.

[2] = target: zfHAE(Y)
Procedure: as §1, §2

[3] = target: zfHHA(Y)
Procedure: as §1, §2

[4] = target: zfHHA(M)
Procedure: as §1, §2

[5] = target: zfHAE(M); remark: listed apart in the source
Procedure: as §1

B1: HAE(M) G-GGMC-GGCG (dsDNA)
DNA 1: TATAGTGGGCCGGCGTGTCACAGTCAGTCCACACACGTC
DNA 2: GACGTGTGTGGACTGACTGTGACACGCCGGCCCACTATA
modifications: 5mC at M (G-GGMC-GGCG), both strands [10 (5mC)]
[1]
  Kd: 0.002 µM
[2]
  Kd: 0.0063 µM

B2: HHA(M) G-GMGC-GGCG (dsDNA)
DNA 1: TATAGTGGCGCGGCGTGTCACAGTCAGTCCACACACGTC
DNA 2: GACGTGTGTGGACTGACTGTGACACGCCGCGCCACTATA
modifications: 5mC at M (G-GMGC-GGCG), both strands [5mC at 9 (top strand); bottom-strand 5mC opposite G10]
[3]
  Kd: 0.014 µM
[4]
  Kd: 0.014 µM

B3: HAE(T) G-GGTC-GGCG (dsDNA)
DNA 1: TATAGTGGGTCGGCGTGTCACAGTCAGTCCACACACGTC
DNA 2: GACGTGTGTGGACTGACTGTGACACGCCGACCCACTATA
[5]
  Kd: 0.027 µM
